Assay results published in paper doi:10.1101/2023.09.25.559264.
Where two headings read alike, the source gives them in different places.

Experiments:
Assay in all cases: MST
[1] = biological target: T1, WtIHF (wild-type integration host factor) (E. coli, UniProt P0A6X7;P0A6Y1 1-99;1-94)
[2] = biological target: T1, WtIHF (wild-type integration host …); remark: listed apart in the source
[3] = biological target: T1, WtIHF (wild-type integration host …); remark: listed apart in the source

T1 sequence (P0A6X7 whole entry, chain 1 of 2): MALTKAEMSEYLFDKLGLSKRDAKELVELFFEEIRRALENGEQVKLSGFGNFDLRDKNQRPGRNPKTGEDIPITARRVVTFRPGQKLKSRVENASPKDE
T1 sequence (P0A6Y1 whole entry, chain 2 of 2): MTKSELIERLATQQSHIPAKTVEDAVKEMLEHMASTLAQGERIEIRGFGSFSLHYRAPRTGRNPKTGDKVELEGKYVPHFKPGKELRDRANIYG

Binder	Kd [1] [nM]	Kd [2] [nM]	Kd [3] [nM]
H'-HJ (structured_DNA) DNA 1: CCAGACAGCAGTTATCAATTTGTTGGGACGGAGG DNA 2: CCTTCAACCACCGCTCATGATTACTGCTGTCTGG DNA 3: CCTCCGTCCCAACAAATGGCTGCTACCGGAAGGG DNA 4: AAAAACCCTTCCGGTAGCAGCCTGAGCGGTGGTTGAAGG	12 ± 0.89	13.6 ± 2.21	2.8 ± 0.5
H1-HJ (structured_DNA) DNA 1: CCAGACAGCAGTAATCAACTACTTAGGACGGAGG DNA 2: CCTTCAACCACCGCTCATGATTACTGCTGTCTGG DNA 3: CCTCCGTCCTAAGTAGTGGCTGCTACCGGAAGGG DNA 4: AAAAACCCTTCCGGTAGCAGCCTGAGCGGTGGTTGAAGG	7.75 ± 1.1	7.09 ± 0.93	11 ± 1.6
